Test results: patent publication US20070148164A1 (Biogen, published 2007)
One block for each binder: values may come before it.

Columns and labels:
[1] = biological target: T1, biotinylated human FcRn-huM4Fc fusion protein (human, biotinylated with BiotinXX sulfosuccinimidyl ester (sites not given)); experiment: FRET competition at pH 5.8: unlabelled competitor mAb against Eu-labelled h5C8 for bhFcRnFc; plotted is mutant IC50/wt IC50
T1 construct: also called bhFcRnFc; biotinylated Fc/FcRn fusion protein

[2] = biological target: T1, biotinylated human FcRn-huM4Fc fusion …; experiment: AlphaScreen competition at pH 6.0: antibody in solution against human IgG1 acceptor beads for bhFcRnFc on streptavidin donor beads; plotted is IC50 (ug/ml by paragraph 723, no unit on the sheet)
[3] = biological target: T1, biotinylated human FcRn-huM4Fc fusion …; experiment: FRET competition, pH 5.8: competitor mAb against Eu-labelled h5C8 for biotinylated hFcRnFc; reference w.t. control antibody
[4] = biological target: T1, biotinylated human FcRn-huM4Fc fusion …; experiment: AlphaScreen competition, pH 6.0: altered antibody against human IgG1 acceptor beads for biotinylated hFcRnFc; reference control antibody

B2: K288M (antibody)
heavy: not shown
light: DIQMTQSPSSLSASVGDRVTITCKAGQDIKSYLSWYQQKPGKAPKLLIYYATRLADGVPSRFSGSGSGTDYTLTISSLQPEDFATYYCLQHGESPWTFGGGTKLEIKRTVAAPSVFIFPPSDEQLKSGTASVVCLLNNFYPREAKVQWKVDNALQSGNSQESVTEQDSKDSTYSLSSTLTLSKADYEKHKVYACEVTHQGLSSPVTKSFNRGEC
notes: EU numbering, EU N297 = residue 300 of the chain; the sheets number them 2 and 4; also called huCBE11 altered antibody with mutation K288M; copies: 2 + 2
binding result [2]: binds

B4: E345R (antibody)
heavy: not shown
light: B2 light
notes: EU numbering, EU N297 = residue 300 of the chain; the sheets number them 2 and 4; also called huCBE11 altered antibody with mutation E345R; copies: 2 + 2
binding result [1]: binds

B5: R255L (antibody)
heavy: not shown
light: B2 light
notes: EU numbering, EU N297 = residue 300 of the chain; the sheets number them 2 and 4; also called huCBE11 altered antibody with mutation R255L; copies: 2 + 2
binding result [2]: binds

B7: V279E (antibody, human IgG1, kappa)
heavy: not shown
light: B2 light
notes: EU numbering, EU N297 = residue 300 of the chain; the sheets number them 2 and 4; also called huCBE11 altered antibody with mutation V279E; copies: 2 + 2
binding result [1]: binds

B14: L314K (antibody)
heavy: not shown
light: B2 light
notes: EU numbering, EU N297 = residue 300 of the chain; the sheets number them 2 and 4; also called huCBE11 altered antibody with mutation L314K; copies: 2 + 2
binding result [1]: binds

B15: D376N (antibody)
heavy: not shown
light: B2 light
notes: EU numbering, EU N297 = residue 300 of the chain; the sheets number them 2 and 4; also called huCBE11 altered antibody with mutation D376N; copies: 2 + 2
binding result [1]: binds

B16: huCBE11 altered antibody with mutation M252T (antibody, human IgG1, kappa)
heavy: not shown
light: B2 light
notes: Position is in EU numbering
binding result [1]: binds

B17: huCBE11 altered antibody with mutation N434L (antibody, human IgG1, kappa)
heavy: not shown
light: B2 light
notes: Position is in EU numbering
fold lower FcRn binding affinity than the control antibody [3]: ~4000 fold

B19: H285D (antibody, human IgG1, kappa)
heavy: not shown
light: B2 light
notes: EU numbering, EU N297 = residue 300 of the chain; the sheets number them 2 and 4; also called huCBE11 altered antibody with mutation H285D; copies: 2 + 2
binding result [1]: binds

B20: huCBE11 altered antibody with mutation Q438E (antibody, human IgG1, kappa)
heavy: not shown
light: B2 light
notes: Position is in EU numbering
fold lower FcRn binding affinity than the control antibody [4]: ~1500 fold

B22: huCBE11 altered antibody with mutation M252S (antibody, human IgG1, kappa)
heavy: not shown
light: B2 light
notes: Position is in EU numbering
binding result [1]: binds

B23: V284D (antibody, human IgG1, kappa)
heavy: not shown
light: B2 light
notes: EU numbering, EU N297 = residue 300 of the chain; the sheets number them 2 and 4; also called huCBE11 altered antibody with mutation V284D; copies: 2 + 2
binding result [1]: binds

Continued, values first:

binding result [1]: binds
B1: A287D (antibody)
heavy: not shown
light: B2 light
notes: EU numbering, EU N297 = residue 300 of the chain; the sheets number them 2 and 4; also called huCBE11 altered antibody with mutation A287D; copies: 2 + 2

binding result [2]: binds
B3: K288D (antibody, human IgG1, kappa)
heavy: not shown
light: B2 light
notes: EU numbering, EU N297 = residue 300 of the chain; the sheets number them 2 and 4; also called huCBE11 altered antibody with mutation K288D; copies: 2 + 2

binding result [2]: binds
B6: K288E (antibody, human IgG1, kappa)
heavy: not shown
light: B2 light
notes: EU numbering, EU N297 = residue 300 of the chain; the sheets number them 2 and 4; also called huCBE11 altered antibody with mutation K288E; copies: 2 + 2

binding result [1]: binds
B8: huCBE11 altered antibody with mutation S304D (antibody, human IgG1, kappa)
heavy: not shown
light: B2 light
notes: Position is in EU numbering

binding result [1]: binds
B9: E345Q (antibody, human IgG1, kappa)
heavy: not shown
light: B2 light
notes: EU numbering, EU N297 = residue 300 of the chain; the sheets number them 2 and 4; also called huCBE11 altered antibody with mutation E345Q; copies: 2 + 2

binding result [1]: binds
B10: huCBE11 altered antibody with mutation K290D (antibody, human IgG1, kappa)
heavy: not shown
light: B2 light
notes: Position is in EU numbering

binding result [1]: binds
B11: S304E (antibody, human IgG1, kappa)
heavy: not shown
light: B2 light
notes: EU numbering, EU N297 = residue 300 of the chain; the sheets number them 2 and 4; also called huCBE11 altered antibody with mutation S304E; copies: 2 + 2

binding result [1]: binds
B12: H285F (antibody)
heavy: not shown
light: B2 light
notes: EU numbering, EU N297 = residue 300 of the chain; the sheets number them 2 and 4; also called huCBE11 altered antibody with mutation H285F; copies: 2 + 2

binding result [1]: binds
B13: R255M (antibody)
heavy: not shown
light: B2 light
notes: EU numbering, EU N297 = residue 300 of the chain; the sheets number them 2 and 4; also called huCBE11 altered antibody with mutation R255M; copies: 2 + 2

binding result [1]: binds
B18: huCBE11 altered antibody with mutation V282E (antibody, human IgG1, kappa)
heavy: not shown
light: B2 light
notes: Position is in EU numbering

binding result [2]: binds
B21: A287E (antibody)
heavy: not shown
light: B2 light
notes: EU numbering, EU N297 = residue 300 of the chain; the sheets number them 2 and 4; also called huCBE11 altered antibody with mutation A287E; copies: 2 + 2
